Results reported in paper PMC9785812 (Pharmaceutics, 2022).
Like-named read-outs stand apart in the source and are kept apart here.

Assays:
[1] = Stability test in PBS (iTLC); format: physicochemical; settings: 37 °C, up to 7 days, ~5 MBq in 250 µL added to 4.75 mL, iTLC-SG, 0.5 M citrate pH 5.5, gamma counter
Method: Radiolabeling was performed by adding up to 200 MBq of the ^153Sm radiolabeling solution to 20 nmol of the DOTA-TATE precursor dissolved in 0.15 M NaOAc buffer (pH 4.7) in a total reaction volume of 1 mL. The reaction vial was placed in a Thermomixer C (Eppendorf) to stir (500 rpm) and the mixture was heated to 95 °C for 15 min. After incubation, the radiolabeling yield was evaluated using thin-layer chromatography. An amount of 1–2 µL of the reaction mixture was spotted on a glass microfiber chromatography paper strip impregnated with silica gel (iTLC-SG, Agilent Technologies, Diegem, Belgium) that was eluted with a 0.5 M citrate solution (pH 5.5). After elution, the TLC papers were cut in half and the activity of the bottom and top part of the TLC paper was counted for 2 min each using an automated gamma counter.
After 1 h, 3 days, 5 days and 7 days, a 5 µL sample was spotted on the TLC system described above to identify the intact fraction.

[2] = Ex vivo biodistribution in CA20948 xenograft mice; settings: mouse, iv
Method: Quantification of activity was performed with an automated gamma counter equipped with a 3-in NaI(Tl) detector coupled to a multichannel analyzer (2480 Wizard^2, Perkin Elmer, Zaventem, Belgium). The results were corrected for background signal, physical decay during counting and detector dead time.
Male NMRI nude mice (between 8 and 15 weeks old) were anesthetized with 2.5% isoflurane in O2 at a flow rate of 0.2 L min^−1 and subcutaneously injected on the right shoulder with 1 × 10^6 CA20948 cells resuspended in PBS with 30% matrigel®. Tumor dimensions were measured two or three times per week and volume was calculated as length × width × height. Mice were sacrificed if the tumor volume exceeded 600 mm^3 or if more than 10% of the original body weight was lost.
Additionally, similar biodistribution studies were performed with free (unlabeled) [^153Sm]SmCl3 to identify the organs with ^153Sm accumulation in case of release from the complex. […] The mice were sacrificed by an overdose pentobarbital (200 µL of 60 mg/mL) 1, 4, 24 and 72 h post-injection (p.i.) (n = 3–4 per time point). Blood was collected via cardiac puncture. Organs of interest were collected in tared tubes and weighed. The activity in the different organs was measured in the gamma counter. For the calculation of the total activity in the blood, bone and muscle, the masses were assumed to be, respectively, 7, 12 and 40% of the total body mass. Data were expressed as a percentage of injected activity (%IA) and standardized uptake value (SUV). %IA was calculated as (counts per min (cpm) in organ)/(IA converted to cpm) × 100. SUV was calculated as (activity in cpm in organ/weight of organ in g)/(IA/total body weight in g).

[3] = male, NMRI nude, bone, total radioactivity, read-out: Bone SUV
[4] = male, NMRI nude, in vivo, total radioactivity, read-out: Excreted %IA
[5] = male, NMRI nude, intestines, total radioactivity, read-out: Intestines %IA
[6] = male, NMRI nude, kidneys, total radioactivity, read-out: Kidneys %IA
[7] = male, NMRI nude, liver, total radioactivity, read-out: Liver %IA
[8] = male, NMRI nude, muscle, total radioactivity, read-out: Muscle %IA
[9] = male, NMRI nude, pancreas, total radioactivity, read-out: Pancreas %IA
[10] = male, NMRI nude, pancreas, total radioactivity, read-out: Pancreas SUV
[11] = male, NMRI nude, spleen, total radioactivity, read-out: Spleen SUV
[12] = male, NMRI nude, stomach, total radioactivity, read-out: Stomach %IA
[13] = male, NMRI nude, tumor, total radioactivity, read-out: Tumor %IA

## C[C@@H](O)[C@H](NC(=O)[C@@H]1CSSC[C@H](NC(=O)[C@@H](Cc2ccccc2)NC(=O)CN2CCN(CC(=O)O)CCN(CC(=O)O)CCN(CC(=O)O)CC2)C(=O)N[C@@H](Cc2ccc(O)cc2)C(=O)N[C@H](Cc2c[nH]c3ccccc23)C(=O)N[C@@H](CCCCN)C(=O)N[C@@H]([C@@H](C)O)C(=O)N1)C(=O)O [[^153Sm]Sm-DOTA-TATE, metal not drawn]
[1]
  radiochemical purity (intact fraction): > 99%
[2]; male, NMRI nude, blood, total radioactivity, read-out: Blood SUV
  SUV at 1 h: 0.1 SUV
[2]; male, NMRI nude, bone, total radioactivity, read-out: Bone %IA
  tissue uptake dose at 4 h: 0.5 ± 0.1 %ID
[2]; [3]
  SUV at 1 h: 0.1 SUV
  SUV at 4 h: 0.1 SUV
[2]; [4]
  tissue uptake dose at 1 h: 80 ± 4.4 %ID
  tissue uptake dose at 4 h: 83 ± 3.5 %ID
  tissue uptake dose at 24 h: 94.1 ± 3.6 %ID
  tissue uptake dose at 72 h: 96.6 ± 1.7 %ID
[2]; [5]
  tissue uptake dose at 4 h: 4.4 ± 1.5 %ID
  tissue uptake dose at 72 h: 0.1 %ID
[2]; male, NMRI nude, kidneys, total radioactivity
  SUV at 72 h: 0.1 SUV
[2]; [6]
  tissue uptake dose at 4 h: 2.4 ± 0.6 %ID
  tissue uptake dose at 72 h: 0.1 %ID
[2]; male, NMRI nude, kidneys, total radioactivity, read-out: Kidneys SUV
  SUV at 24 h: 0.3 ± 0.1 SUV
[2]; [7]
  tissue uptake dose at 1 h: 0.4 ± 0.1 %ID
  tissue uptake dose at 24 h: 0.1 %ID
[2]; male, NMRI nude, liver, total radioactivity, read-out: Liver SUV
  SUV at 1 h: 0.1 SUV
[2]; male, NMRI nude, lungs, total radioactivity, read-out: Lungs %IA
  tissue uptake dose at 1 h: 0.1 %ID
[2]; male, NMRI nude, lungs, total radioactivity, read-out: Lungs SUV
  SUV at 1 h: 0.1 SUV
[2]; [8]
  tissue uptake dose at 1 h: 1 ± 0.4 %ID
  tissue uptake dose at 24 h: 0.1 %ID
[2]; male, NMRI nude, muscle, total radioactivity, read-out: Muscle SUV
  SUV at 4 h: 0.1 SUV
[2]; [9]
  tissue uptake dose at 1 h: 1 ± 0.1 %ID
  tissue uptake dose at 4 h: 0.4 ± 0.3 %ID
  tissue uptake dose at 24 h: 0.1 %ID
[2]; [10]
  SUV at 4 h: 0.6 ± 0.4 SUV
  SUV at 24 h: 0.1 SUV
[2]; [11]
  SUV at 1 h: 0.1 SUV
  SUV at 4 h: 0.1 SUV
[2]; [12]
  tissue uptake dose at 1 h: 0.7 ± 0.1 %ID
  tissue uptake dose at 4 h: 1 ± 0.3 %ID
  tissue uptake dose at 72 h: 0.1 %ID
[2]; [13]
  tissue uptake dose at 4 h: 6.1 ± 3.7 %ID
  tissue uptake dose at 24 h: 3.2 ± 2.9 %ID
  tissue uptake dose at 72 h: 2.2 ± 1.6 %ID
[2]; male, NMRI nude, tumor, total radioactivity, read-out: Tumor SUV
  SUV at 4 h: 4.4 ± 1.1 SUV
[2]; male, NMRI nude, whole blood, total radioactivity, read-out: Blood %IA
  tissue uptake dose at 4 h: 0.1 %ID
[2]; bone, total radioactivity, 24 h p.i., CA20948 tumor bearing male NMRI-nude mice, ~2-3 MBq i.v., mean ± SD, n = 3-4, read-out: Bone %IA
  tissue uptake dose at 24 h: 0.2 ± 0.1 %ID
[2]; bone, total radioactivity, 72 h p.i., CA20948 tumor bearing male NMRI-nude mice, ~2-3 MBq i.v., mean ± SD, n = 3-4, read-out: Bone %IA
  tissue uptake dose at 72 h: 0.2 %ID
[2]; in vivo
  Blood %IA: 0.0 ± 0.0 %IA
  Blood SUV: 0.0 ± 0.0
  Bone %IA: 0.4 ± 0.0 %IA
  Bone SUV: 0.0 ± 0.0
  Brain %IA: 0.0 ± 0.0 %IA
  Brain SUV: 0.0 ± 0.0
  Heart %IA: 0.0 ± 0.0 %IA
  Heart SUV: 0.0 ± 0.0
  Liver SUV: 0.0 ± 0.0
  Lungs %IA: 0.0 ± 0.0 %IA
  Lungs SUV: 0.0 ± 0.0
  Muscle %IA: 0.0 ± 0.0 %IA
  Muscle SUV: 0.0 ± 0.0
  Pancreas %IA: 0.0 ± 0.0 %IA
  Pancreas SUV: 0.0 ± 0.0
  Spleen %IA: 0.0 ± 0.0 %IA
  Spleen SUV: 0.0 ± 0.0
[2]; intestines, total radioactivity, 1 h p.i., CA20948 tumor bearing male NMRI-nude mice, ~2-3 MBq i.v., mean ± SD, n = 3-4, read-out: Intestines %IA
  tissue uptake dose at 1 h: 2 ± 0.3 %ID
[2]; intestines, total radioactivity, 24 h p.i., CA20948 tumor bearing male NMRI-nude mice, ~2-3 MBq i.v., mean ± SD, n = 3-4, read-out: Intestines %IA
  tissue uptake dose at 24 h: 0.6 ± 0.2 %ID
[2]; total radioactivity, 1 h p.i., CA20948 tumor bearing male NMRI-nude mice, ~2-3 MBq i.v., mean ± SD, n = 3-4, read-out: Tumor %IA
  tissue uptake dose at 1 h: 3.7 ± 2 %ID
[2]; kidneys, total radioactivity, 24 h p.i., CA20948 tumor bearing male NMRI-nude mice, ~2-3 MBq i.v., mean ± SD, n = 3-4, read-out: Kidneys %IA
  tissue uptake dose at 24 h: 0.5 ± 0.2 %ID
[2]; liver, total radioactivity, 4 h p.i., CA20948 tumor bearing male NMRI-nude mice, ~2-3 MBq i.v., mean ± SD, n = 3-4, read-out: Liver %IA
  tissue uptake dose at 4 h: 0.2 %ID
[2]; liver, total radioactivity, 72 h p.i., CA20948 tumor bearing male NMRI-nude mice, ~2-3 MBq i.v., mean ± SD, n = 3-4, read-out: Liver %IA
  tissue uptake dose at 72 h: 0.2 %ID
[2]; muscle, total radioactivity, 1 h p.i., CA20948 tumor bearing male NMRI-nude mice, ~2-3 MBq i.v., mean ± SD, n = 3-4, read-out: Muscle SUV
  SUV at 1 h: 0.2 ± 0.1 SUV
[2]; muscle, total radioactivity, 4 h p.i., CA20948 tumor bearing male NMRI-nude mice, ~2-3 MBq i.v., mean ± SD, n = 3-4, read-out: Muscle %IA
  tissue uptake dose at 4 h: 0.4 ± 0.2 %ID
[2]; pancreas, total radioactivity, 1 h p.i., CA20948 tumor bearing male NMRI-nude mice, ~2-3 MBq i.v., mean ± SD, n = 3-4, read-out: Pancreas SUV
  SUV at 1 h: 1.2 ± 0.2 SUV
[2]; stomach, total radioactivity, 24 h p.i., CA20948 tumor bearing male NMRI-nude mice, ~2-3 MBq i.v., mean ± SD, n = 3-4, read-out: Stomach %IA
  tissue uptake dose at 24 h: 0.3 ± 0.2 %ID
[2]; whole blood, total radioactivity, 1 h p.i., CA20948 tumor bearing male NMRI-nude mice, ~2-3 MBq i.v., mean ± SD, n = 3-4, read-out: Blood %IA
  tissue uptake dose at 1 h: 0.7 ± 0.2 %ID
